Laboratory results as given in US20250295801A1, “CD25 ANTIBODIES, ANTIBODY DRUG CONJUGATES, AND USES THEREOF” (Seagen Inc., priority 2024, published 2025).
Where two headings read alike, the source gives them in different places.

T1: mouse CD25 on Yac-1 mouse lymphoma cells (mouse) (UniProt P01590)
T1 sequence (looked up): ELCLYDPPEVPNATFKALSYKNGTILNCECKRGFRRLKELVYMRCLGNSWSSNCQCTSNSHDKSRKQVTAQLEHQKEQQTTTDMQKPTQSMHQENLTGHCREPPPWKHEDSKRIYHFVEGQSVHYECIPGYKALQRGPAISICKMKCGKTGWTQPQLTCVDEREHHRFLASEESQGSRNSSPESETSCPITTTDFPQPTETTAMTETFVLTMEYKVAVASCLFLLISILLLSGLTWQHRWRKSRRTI

T2: recombinant human CD25 (human, UniProt P01589 22-213, limits assumed, biotinylated in the Octet kinetic assay (site not stated))
T2 construct: Soluble recombinant antigen; It was coated on plates for ELISA and used as bought biotinylated protein for BLI; The ELISA and BLI reagents may be different constructs; also called hCD25; CD25/IL2RA
T2 sequence: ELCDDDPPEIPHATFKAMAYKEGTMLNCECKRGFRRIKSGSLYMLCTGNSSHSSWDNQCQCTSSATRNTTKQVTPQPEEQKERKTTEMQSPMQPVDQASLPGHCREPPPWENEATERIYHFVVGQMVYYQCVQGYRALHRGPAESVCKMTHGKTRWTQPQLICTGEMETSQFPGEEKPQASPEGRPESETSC

T3: human CD25 on CD25 expressing cells (human, UniProt P01589 22-272)
T3 construct: Endogenous CD25 on human lymphoma lines (L540cy, Karpas-299) and on human Treg cells; also called CD25 on L540cy cells; CD25 on Karpas-299 cells
T3 sequence: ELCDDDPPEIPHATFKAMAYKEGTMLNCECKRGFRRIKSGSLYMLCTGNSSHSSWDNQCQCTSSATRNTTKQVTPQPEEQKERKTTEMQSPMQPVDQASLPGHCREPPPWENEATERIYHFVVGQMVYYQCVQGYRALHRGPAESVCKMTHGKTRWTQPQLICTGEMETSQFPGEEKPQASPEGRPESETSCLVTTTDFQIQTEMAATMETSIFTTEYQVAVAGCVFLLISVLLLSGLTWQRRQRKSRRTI


Tests used:
[1] = target: T1, mouse CD25 on Yac-1 mouse lymphoma cells (mouse); experiment: saturation binding by flow cytometry on Yac-1 cells
[2] = target: T2, recombinant human CD25; experiment: BLI kinetics (Octet RED384), biotinylated hCD25 on SAX tips, 1:1 global fit
Method: Biotinylated recombinant human CD25 was obtained from Acro Biosystems. Biotinylated hCD25 protein was loaded on SAX (High sensitivity streptavidin) tips at 0.8 nM loading density. Affinity measurements were run using a ForteBio Octet RED384 instrument in the kinetic buffer comprising 1×PBS, 0.1% BSA, 0.02% Tween20, pH 7.4. Association measurements were performed for 300 seconds and disassociation measurements were performed for 900 seconds. Each curve was reference subtracted and modeled using a 1:1 global fit. KD results are reported as kₐ divided by kd.

[3] = target: T2, recombinant human CD25; experiment: saturation binding ELISA on recombinant human CD25
Method: (§1) Saturation binding ELISA experiments were performed using soluble recombinant antigens, which were diluted to an appropriate concentration in 50 mM carbonate buffer, pH 9.6. To each well of a 96- or 384-well Maxisorb ELISA plate was added 100 μL of soluble antigen. The plate was sealed and stored at 4° C. overnight. The plate was then washed 3-5 times with PBS-T was buffer (PBS, pH 7.4+0.05% Tween-20). The wells were blocked using 300 μL/well of PBS-T buffer containing BSA for 1 hour at room temperature, then washed 3-5 times with PBS-T. Dilutions of antibodies were prepared in blocking buffer and added to each well in a volume of 100 μL. The antibodies were incubated for 1 hour at room temperature, and then washed 3-5 times with PBS-T. HRP-conjugated secondary antibodies (anti-human Fc) were then added and incubated for 1 hour at room temperature. The plate was washed 3-5 times with PBS-T. The ELISA was developed by adding 100 μL of TMB solution and incubating for 3-15 min at room temperature. To stop the reaction, 100 μL of 1 N sulfuric acid was added to each well. The absorbance at 450 nm was determined using a Spectramax 190 plate reader (Molecular Biosciences) and the data plotted using GraphPad Prism 6.

[4] = target: T3, human CD25 on CD25 expressing cells; experiment: saturation binding by flow cytometry on L540cy cells (CD25: 55,000 per cell), MFI (Gmean)
Method: (§2) For cellular binding analysis by FACS, cells expressing the target protein of interest (2×10⁵) were treated with a serial dilution of indicated antibody in staining buffer (PBS, 5% FBS, 0.2% NaN₃). Samples were incubated for 1 hour on ice and washed twice with ice-cold staining buffer. Cells were resuspended with anti-human IgG-AF488 or IgG-AF647 (JacksonImmunoResearch), 1:200 dilution in staining buffer) for 1 hour on ice. Cells were washed twice with ice cold staining buffer and resuspended in staining buffer. Labeled cells were examined by flow cytometry on an Invitrogen Attune NxT flow cytometer gated to exclude nonviable cells, and the data analyzed using FlowJo10 software. When determined, the KD was calculated using GraphPad Prism 6 using non-linear regression.
(§3) Saturation binding analysis was also performed using high CD25 expressing L540cy cells.

[5] = target: T2, recombinant human CD25; experiment: saturation binding ELISA on recombinant human CD25; remark: listed apart in the source
Method: as §1

[6] = target: T3, human CD25 on CD25 expressing cells; experiment: saturation binding by flow cytometry on L540cy cells (CD25: 55,000 per cell), MFI (Gmean); remark: listed apart in the source
Method: as §2, §3

Binder	Kd [1]	Kd [2]	koff [2]	kon [2]	EC50 (read off the curve) [3]	EC50 (read off the curve) [4]	EC50 (read off the curve) [5]	EC50 (read off the curve) [6]
PC61 mIgG2a (antibody, from another filing, V domains shown) VH: EVQLQQSGAELVRPGTSVKLSCKVSGDTITAYYIHFVKQRPGQGLEWIGRIDPEDDSTEYAEKFKNKATITANTSSNTAHLKYSRLTSEDTATYFCTTDNMGATEFVYWGQGTLVTVSS VL: QVVLTQPKSVSASLESTVKLSCKLNSGNIGSYYMHWYQQREGRSPTNLIYRDDKRPDGAPDRFSGSIDISSNSAFLTINNVQTEDEAMYFCHSYDGRMYIFGGGTKLTV	0.7 nM							
SG25Ab-9 variant YH99A (antibody, V domains shown, Kabat-type numbering, not linear) VH: QVQLVQSGAEVKKPGESLKISCKGSGYSSTSYWIGWVRQMPGKGLEWMGIIYPGDSDTRYSPSFQGQVTISADKSISTAYLQWSSLKASDTAMYYCARLGSYAAFDIWGRGTMVTVSS VL: QSALTQPASVSASPGQSITISCTGTSSDVGAYIYVSWYQQLSGKPPKLILYDVSKRPSGISDRFSGSKSGNTASLTISGLQADDEADYYCSSYTRSSTWVFGGGTQLTVLG		21.5 nM	0.0085 s⁻¹	390000 M⁻¹ s⁻¹				
SG25Ab-9 variant GH96W (antibody, V domains shown) VH: QVQLVQSGAEVKKPGESLKISCKGSGYSSTSYWIGWVRQMPGKGLEWMGIIYPGDSDTRYSPSFQGQVTISADKSISTAYLQWSSLKASDTAMYYCARLWSYYAFDIWGRGTMVTVSS VL: QSALTQPASVSASPGQSITISCTGTSSDVGAYIYVSWYQQLSGKPPKLILYDVSKRPSGISDRFSGSKSGNTASLTISGLQADDEADYYCSSYTRSSTWVFGGGTQLTVLG		0.5 nM	0.001 s⁻¹	1.9e+06 M⁻¹ s⁻¹				
SG25Ab-9 variant YH52A (antibody, V domains shown) VH: QVQLVQSGAEVKKPGESLKISCKGSGYSSTSYWIGWVRQMPGKGLEWMGIIAPGDSDTRYSPSFQGQVTISADKSISTAYLQWSSLKASDTAMYYCARLGSYYAFDIWGRGTMVTVSS VL: QSALTQPASVSASPGQSITISCTGTSSDVGAYIYVSWYQQLSGKPPKLILYDVSKRPSGISDRFSGSKSGNTASLTISGLQADDEADYYCSSYTRSSTWVFGGGTQLTVLG		1.3 nM	0.001 s⁻¹	780000 M⁻¹ s⁻¹		~4 nM		
SG25Ab-9 variant DH56K (antibody, V domains shown) VH: QVQLVQSGAEVKKPGESLKISCKGSGYSSTSYWIGWVRQMPGKGLEWMGIIYPGDSKTRYSPSFQGQVTISADKSISTAYLQWSSLKASDTAMYYCARLGSYYAFDIWGRGTMVTVSS VL: QSALTQPASVSASPGQSITISCTGTSSDVGAYIYVSWYQQLSGKPPKLILYDVSKRPSGISDRFSGSKSGNTASLTISGLQADDEADYYCSSYTRSSTWVFGGGTQLTVLG		151 nM	0.004 s⁻¹	26000 M⁻¹ s⁻¹				
SG25Ab-9 variant FH100AN (antibody, V domains shown) VH: QVQLVQSGAEVKKPGESLKISCKGSGYSSTSYWIGWVRQMPGKGLEWMGIIYPGDSDTRYSPSFQGQVTISADKSISTAYLQWSSLKASDTAMYYCARLGSYYANDIWGRGTMVTVSS VL: QSALTQPASVSASPGQSITISCTGTSSDVGAYIYVSWYQQLSGKPPKLILYDVSKRPSGISDRFSGSKSGNTASLTISGLQADDEADYYCSSYTRSSTWVFGGGTQLTVLG		0.3 nM	5.7e-05 s⁻¹	200000 M⁻¹ s⁻¹			~0.3 nM	1 to 2 nM
SG25Ab-9 variant DH54K (antibody, V domains shown) VH: QVQLVQSGAEVKKPGESLKISCKGSGYSSTSYWIGWVRQMPGKGLEWMGIIYPGKSDTRYSPSFQGQVTISADKSISTAYLQWSSLKASDTAMYYCARLGSYYAFDIWGRGTMVTVSS VL: QSALTQPASVSASPGQSITISCTGTSSDVGAYIYVSWYQQLSGKPPKLILYDVSKRPSGISDRFSGSKSGNTASLTISGLQADDEADYYCSSYTRSSTWVFGGGTQLTVLG		24.2 nM	0.0079 s⁻¹	330000 M⁻¹ s⁻¹				
SG25Ab-9 variant AH100F (antibody, V domains shown) VH: QVQLVQSGAEVKKPGESLKISCKGSGYSSTSYWIGWVRQMPGKGLEWMGIIYPGDSDTRYSPSFQGQVTISADKSISTAYLQWSSLKASDTAMYYCARLGSYYFFDIWGRGTMVTVSS VL: QSALTQPASVSASPGQSITISCTGTSSDVGAYIYVSWYQQLSGKPPKLILYDVSKRPSGISDRFSGSKSGNTASLTISGLQADDEADYYCSSYTRSSTWVFGGGTQLTVLG		3.9 nM	0.0012 s⁻¹	310000 M⁻¹ s⁻¹				
SG25Ab-9 variant YH32A (antibody, V domains shown) VH: QVQLVQSGAEVKKPGESLKISCKGSGYSSTSAWIGWVRQMPGKGLEWMGIIYPGDSDTRYSPSFQGQVTISADKSISTAYLQWSSLKASDTAMYYCARLGSYYAFDIWGRGTMVTVSS VL: QSALTQPASVSASPGQSITISCTGTSSDVGAYIYVSWYQQLSGKPPKLILYDVSKRPSGISDRFSGSKSGNTASLTISGLQADDEADYYCSSYTRSSTWVFGGGTQLTVLG		0.8 nM	0.00023 s⁻¹	300000 M⁻¹ s⁻¹		~5 nM		
SG25Ab-9 variant FH100AA (antibody, V domains shown) VH: QVQLVQSGAEVKKPGESLKISCKGSGYSSTSYWIGWVRQMPGKGLEWMGIIYPGDSDTRYSPSFQGQVTISADKSISTAYLQWSSLKASDTAMYYCARLGSYYAADIWGRGTMVTVSS VL: QSALTQPASVSASPGQSITISCTGTSSDVGAYIYVSWYQQLSGKPPKLILYDVSKRPSGISDRFSGSKSGNTASLTISGLQADDEADYYCSSYTRSSTWVFGGGTQLTVLG		0.6 nM	0.00017 s⁻¹	290000 M⁻¹ s⁻¹			~0.8 nM	1 to 2 nM

More lines, in order of falling Kd [2], values ahead:

Kd [1]	Kd [2]	koff [2]	kon [2]	EC50 (read off the curve) [3]	EC50 (read off the curve) [4]	EC50 (read off the curve) [5]	EC50 (read off the curve) [6]	Binder
	0.2 nM	0.0001 s⁻¹	420000 M⁻¹ s⁻¹			~0.2 nM	~1 nM	SG25Ab-9 variant DH101K (antibody, V domains shown) VH: QVQLVQSGAEVKKPGESLKISCKGSGYSSTSYWIGWVRQMPGKGLEWMGIIYPGDSDTRYSPSFQGQVTISADKSISTAYLQWSSLKASDTAMYYCARLGSYYAFKIWGRGTMVTVSS VL: QSALTQPASVSASPGQSITISCTGTSSDVGAYIYVSWYQQLSGKPPKLILYDVSKRPSGISDRFSGSKSGNTASLTISGLQADDEADYYCSSYTRSSTWVFGGGTQLTVLG
	0.1 nM	3.8e-05 s⁻¹	300000 M⁻¹ s⁻¹	~0.2 nM	~0.9 nM			SG25Ab-9 variant SH28W (antibody, V domains shown) VH: QVQLVQSGAEVKKPGESLKISCKGSGYWSTSYWIGWVRQMPGKGLEWMGIIYPGDSDTRYSPSFQGQVTISADKSISTAYLQWSSLKASDTAMYYCARLGSYYAFDIWGRGTMVTVSS VL: QSALTQPASVSASPGQSITISCTGTSSDVGAYIYVSWYQQLSGKPPKLILYDVSKRPSGISDRFSGSKSGNTASLTISGLQADDEADYYCSSYTRSSTWVFGGGTQLTVLG
	0.1 nM	2.6e-05 s⁻¹	240000 M⁻¹ s⁻¹	~0.2 nM	~0.9 nM			SG25Ab-9 variant YH27A (antibody, V domains shown) VH: QVQLVQSGAEVKKPGESLKISCKGSGASSTSYWIGWVRQMPGKGLEWMGIIYPGDSDTRYSPSFQGQVTISADKSISTAYLQWSSLKASDTAMYYCARLGSYYAFDIWGRGTMVTVSS VL: QSALTQPASVSASPGQSITISCTGTSSDVGAYIYVSWYQQLSGKPPKLILYDVSKRPSGISDRFSGSKSGNTASLTISGLQADDEADYYCSSYTRSSTWVFGGGTQLTVLG
	0.1 nM	8.1e-05 s⁻¹	1.6e+06 M⁻¹ s⁻¹	~0.2 nM	1 to 2 nM			SG25Ab-9 variant GH53Y (antibody, V domains shown) VH: QVQLVQSGAEVKKPGESLKISCKGSGYSSTSYWIGWVRQMPGKGLEWMGIIYPYDSDTRYSPSFQGQVTISADKSISTAYLQWSSLKASDTAMYYCARLGSYYAFDIWGRGTMVTVSS VL: QSALTQPASVSASPGQSITISCTGTSSDVGAYIYVSWYQQLSGKPPKLILYDVSKRPSGISDRFSGSKSGNTASLTISGLQADDEADYYCSSYTRSSTWVFGGGTQLTVLG
	0.1 nM	2.8e-05 s⁻¹	220000 M⁻¹ s⁻¹	~0.2 nM	~0.9 nM			SG25Ab-9 variant SH55N (antibody, V domains shown) VH: QVQLVQSGAEVKKPGESLKISCKGSGYSSTSYWIGWVRQMPGKGLEWMGIIYPGDNDTRYSPSFQGQVTISADKSISTAYLQWSSLKASDTAMYYCARLGSYYAFDIWGRGTMVTVSS VL: QSALTQPASVSASPGQSITISCTGTSSDVGAYIYVSWYQQLSGKPPKLILYDVSKRPSGISDRFSGSKSGNTASLTISGLQADDEADYYCSSYTRSSTWVFGGGTQLTVLG
